What was measured:
[1] = system: panel of colorectal cancer cell lines and panel of pancreatic cell lines; assay: Cytotoxicity screen onvansertib +/- 1 nM INBRX-109, summary over the additional panels; format: cell-based; details: combination of INBRX-109 and onvansertib
Description: The results for a panel of colorectal cancer cell lines are shown in Table 3 and FIGS. 4-6, and the results for a panel of pancreatic cell lines are shown in Table 4 and FIGS. 7 and 8.

CAL-78 = assay: Cell viability (CellTiter-Glo) cytotoxicity assay, INBRX-109 x CDK9 or MCL-1 inhibitor matrix, 48 h, chondrosarcoma line
Description: (§1) On day 1, cells were seeded as follows. Monolayer cultures of each cell line (chondrosarcoma: CAL-78, OUMS-27, SW1353, and H-EMC-SS; colorectal cancer: SW620; and synovial sarcoma: HS-SY-II) were harvested for compound screening. Culture medium was aspirated, and the cells were washed once with PBS. Accutase was added and flasks were incubated at 37° C. until cells became detached. An equal volume of complete medium was added to quench the Accutase, and the cells were then pipetted up and down several times to generate a homogenous single cell suspension. The density and viability of cells was determined by Trypan Blue using a TC20 Automated Cell Counter. Experimental cells were resuspended to a concentration of 0.17×10^6/mL in Eagle's Minimum Essential Medium (EMEM)/10% FBS/Anti-Anti media (complete EMEM) and seeded in the inner wells of 384-well luminescence plates at 15 mL/well (2,500/well final). Each cell line was plated in duplicate on separate plates. Outer wells were filled with 50 mL PBS, then plates were incubated in a humidified temperature-controlled 37° C. tissue culture incubator at 5% CO2 overnight for 16 hours.
(§2) These test articles were added, in duplicate, to each cell line. The plates were then centrifuged at 400×g for 1 minute, then incubated in a 37° C. humidity-controlled tissue culture incubator (5% CO2) for 48 hours.
(§3) After incubation with the test articles, viability measurements were taken, briefly. Plates were equilibrated to room temperature for 10 minutes, then 25 μL of CellTiter-Glo 2.0® was added to each well. Plates were spun for 1 minute at 400×g, then covered and incubated in the dark for 10 minutes at room temperature. Any visible bubbles were removed with 100% ethanol vapor, then luminescence (RLU) was read on the Spectra Max M5e plate reader, using the 384-well opaque plate setting and SoftMax® Pro v5.4 software with an integration time of 50 milliseconds. To determine the effect of test articles on cell viability, raw RLU values were exported to Excel and percent survival was calculated as a percentage of vehicle control (0.5% DMSO in EMEM), where the vehicle control is set at 100%. Data was graphed in GraphPad Prism 9.

SW1353 = assay: as above
Description: as §1, §2, §3

[2] = system: several cancerous cell lines; assay: Previous cytotoxicity assays with several cancerous cell lines; format: cell-based
SW620 = assay: Cell viability (CellTiter-Glo) cytotoxicity assay, INBRX-109 x CDK9 or MCL-1 inhibitor matrix, 48 h, colorectal cancer line
Description: as §1, §2, §3

HS-SY-II = assay: Cell viability (CellTiter-Glo) cytotoxicity assay, INBRX-109 x CDK9 or MCL-1 inhibitor matrix, 48 h, synovial sarcoma line
Description: as §1, §2, §3

OUMS-27 = assay: Cell viability (CellTiter-Glo) cytotoxicity assay, INBRX-109 x CDK9 or MCL-1 inhibitor matrix, 48 h, chondrosarcoma line
Description: as §1, §2, §3

H-EMC-SS = assay: as above
Description: as §1, §2, §3

[3] = INBRX-109 + 125 nM flavopiridol

Molecule: CN1CCN(c2ccc(OC(F)(F)F)c(Nc3ncc4c(n3)-c3c(c(C(N)=O)nn3CCO)CC4)c2)CC1 [Onvansertib]
- cell killing by the combination compared to either agent alone [1]: increased cell killing

B1: INBRX-109: DR5-binding polypeptide consisting of SEQ ID NO: 7 (two VHH domains and an Fc region); DR5 agonist (protein)
chain: EVQLLESGGGEVQPGGSLRLSCAASGLTFPNYGMGWFRQAPGKEREFVSAIYWSGGTVYYAESVKGRFTISRDNAKNTLYLQMSSLRAEDTAVYYCAVTIRGAATQTWKYDYWGQGTLVTVKPGGSGGSEVQLLESGGGEVQPGGSLRLSCAASGLTFPNYGMGWFRQAPGKEREFVSAIYWSGGTVYYAESVKGRFTISRDNAKNTLYLQMSSLRAEDTAVYYCAVTIRGAATQTWKYDYWGQGTLVTVKPGGGGDKTHTCPPCPAPGGPSVFLFPPKPKDTLMISRTPEVTCVVVDVSHEDPEVKFNWYVDGVEVHNAKTKPREEQYNSTYRVVSVLTVLHQDWLNGKEYKCKVSNKALPAPIEKTISKAKGQPREPQVYTLPPSRDELTKNQVSLTCLVKGFYPSDIAVEWESNGQPENNYKTTPPVLDSDGSFFLYSKLTVDKSRWQQGNVFSCSVMHEALHNHYTQKSLSLSPGK
modifications: INBRX-109
notes: DR5 agonist
- EC50 (CAL-78; INBRX-109 + 2 μM AZD-5991): 3.93 pM
- EC50 (CAL-78; INBRX-109 only (Table 5)): > 3600 pM
- EC50 (CAL-78; INBRX-109 only (Table 7)): unstable
- EC50 (CAL-78; INBRX-109 only (Table 9)): 17.2 pM
- EC50 (CAL-78; INBRX-109 only (Table 11)): 28.9 pM
- EC50 (SW1353; INBRX-109 + 125 nM enitociclib): 1.05 pM
- EC50 (SW1353; [3]): 2.81 pM
- EC50 (SW1353; INBRX-109 + 2 μM AZD-5991): 5.33 pM
- EC50 (SW1353; INBRX-109 only (Table 5)): unstable
- EC50 (SW1353; INBRX-109 only (Table 7)): unstable
- EC50 (SW1353; INBRX-109 only (Table 9)): Unstable
- EC50 (SW1353; INBRX-109 only (Table 11)): 9.1 pM
- EC50 (SW1353; INBRX-109 only (Table 13)): Unstable
- maximally efficacious concentration [2]: 1 nM
- EC50 (SW620; INBRX-109 + 2 μM AZD-5991): 5.78 pM
- EC50 (SW620; INBRX-109 only (Table 5)): 7.8 pM
- EC50 (SW620; INBRX-109 only (Table 7)): 98.1 pM
- EC50 (SW620; INBRX-109 only (Table 9)): 1.37 pM
- EC50 (SW620; INBRX-109 only (Table 11)): 1.98 pM
- EC50 (SW620; INBRX-109 only (Table 13)): 9.84 pM
- EC50 (HS-SY-II; INBRX-109 + 125 nM enitociclib): 646 pM
- EC50 (HS-SY-II; [3]): 1.93 pM
- EC50 (HS-SY-II; INBRX-109 + 2 μM AZD-5991): Unstable
- EC50 (HS-SY-II; INBRX-109 only (Table 9)): Unstable
- EC50 (HS-SY-II; INBRX-109 only (Table 11)): 11 pM
- EC50 (OUMS-27; INBRX-109 + 2 μM AZD-5991): 8.71 pM
- EC50 (OUMS-27; INBRX-109 only (Table 5)): 982 pM
- EC50 (OUMS-27; INBRX-109 only (Table 7)): > 4090 pM
- EC50 (OUMS-27; INBRX-109 only (Table 11)): Unstable
- EC50 (OUMS-27; INBRX-109 only (Table 13)): 8870 pM
- EC50 (H-EMC-SS; INBRX-109 + 125 nM enitociclib): 2.33 pM
- EC50 (H-EMC-SS; [3]): 1.46 pM
- EC50 (H-EMC-SS; INBRX-109 + 2 μM AZD-5991): 2.59 pM
- EC50 (H-EMC-SS; INBRX-109 only (Table 5)): 2.2 pM
- EC50 (H-EMC-SS; INBRX-109 only (Table 7)): 1.96 pM
- EC50 (H-EMC-SS; INBRX-109 only (Table 9)): 9.25 pM
- EC50 (H-EMC-SS; INBRX-109 only (Table 11)): 9.26 pM
- EC50 (H-EMC-SS; INBRX-109 only (Table 13)): 10.2 pM

— US20250215101A1, “DR5 Agonist and PLK1 Inhibitor or CDK Inhibitor Combination Therapy” (Inhibrx Biosciences, Inc., priority 2022, published 2025)
